# Data as given in patent US20190375839A1 (JIANGSU HENGRUI MEDICINE, published 2019).
# Columns and labels:
# [1] = target: T1, human TIM-3 full length, overexpressed on CHO-S cells (human, UniProt Q8TDQ0 22-301); assay: cell-based ELISA on CHO-S cells overexpressing human TIM-3
# T1 construct: cells fixed with 4% PFA on plates; also called HAVCR2; Tim-3-overexpressing CHO-S cells
# Description: (§1) The binding activity of anti-TIM-3 antibody to CHO-S cells overexpressing human TIM-3 is detected via a binding assay. […] TIM-3-overexpressing cells were immobilized on a 96-well plate. After the addition of the antibody, signal strength was used to determine the binding activity of the antibody to Tim-3-overexpressing CHO-S cells.
# (§2) The cells were inoculated on a 96-well plate with 4E5/ml density, 100 μg/well, and cultured overnight. Supernatant was discarded and the plate was washed three times with PBS. 100 μl/well of 4% PFA was added into each well, and the plate was fixed at room temperature for 30 minutes. The plate was washed three times with PBS. The liquid was discarded, and 200 μl of blocking solution (5% skim milk (Guangming skim milk powder) diluted with PBS) was added to each well. The plate was incubated at 37° C. for 2.5 h. Then the blocking solution was discarded, and the plate was washed 5 times with PBST buffer (pH 7.4 PBS containing 0.05% Tween-20). 50 μl/well of various concentrations of antibodies to be tested (antibody via hybridoma purification or humanized antibody), diluted with sample buffer, were added into each well, and incubated at 37° C. for 1 h. […] The plate was washed 6 times with PBST, and 100 μl/well TMB chromogenic substrates (KPL, Cat, No., 52-00-03) was added to each well. The plate was incubated at room temperature for 5-15 min. Reaction was stopped by the addition of 50 μl of 1 M H₂SO₄ to each well.
# [2] = target: T2, Extracellular domain of TIM-3 with Flag and His tag (human); assay: Biacore SPR; antibody as stationary phase, 'TIM-3-His' as mobile phase
# T2 construct: also called TIM-3-Flag-His
# [3] = target: T1, human TIM-3 full length, overexpressed …; assay: cell-based ELISA on fixed CHO-S cells overexpressing human TIM-3;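 also: antibody binding at serial dilutions to PFA-fixed cells for 1 h at 37 °C, read as TMB colour signal after acid stop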
# Description: as §1, §2
# [4] = target: T2, Extracellular domain of TIM-3 with Flag …; assay: Biacore SPR; antibody captured by anti-human capture antibody on CM5, TIM-3-Flag-His in mobile phase
# Excerpt: The reaction signal was detected in real-time using Biacore instrument to obtain the association and dissociation curves. […] In the experiment, after each cycle of dissociation was finished, the biosensor chip was washed with the regenerative solution in the human capture antibody Kit.
Binder,EC50 [1],Kd [2],EC50 [3],Kd [4]
"h1701-009NAG (antibody, human IgG4 S228P, kappa, V domains shown, HCDR2 point-mutation variant of h1701-009 (NNG to NAG); IgG4 (S228P)/kappa) VH: QVQLVQSGAEVKKPGASVKVSCKASGYTFTDYYMNWVRQAPGQGLEWMGDIIPNAGGSKYNQKFKDRVTMTTDTSTSTAYMELRSLRSDDTAVYYCATWGYGSSYRWFDYWGQGTLVTVSS VL: DIQMTQSPSSLSASVGDRVTITCLASQPIGIWLAWYQQKPGKAPKLLIYAATSLADGVPSRFSGSGSGTDFTFTISSLQPEDIATYYCQQLYSSPWTFGGGTKVEIKR",512 pM,579 pM,,
"h1701-009NNA (antibody, human IgG4 S228P, kappa, V domains shown, HCDR2 point-mutation variant of h1701-009 (NNG to NNA); IgG4 (S228P)/kappa) VH: QVQLVQSGAEVKKPGASVKVSCKASGYTFTDYYMNWVRQAPGQGLEWMGDIIPNNAGSKYNQKFKDRVTMTTDTSTSTAYMELRSLRSDDTAVYYCATWGYGSSYRWFDYWGQGTLVTVSS VL: DIQMTQSPSSLSASVGDRVTITCLASQPIGIWLAWYQQKPGKAPKLLIYAATSLADGVPSRFSGSGSGTDFTFTISSLQPEDIATYYCQQLYSSPWTFGGGTKVEIKR",515 pM,569 pM,,
"h1701-009NHA (antibody, human IgG4 S228P, kappa, V domains shown, HCDR2 point-mutation variant of h1701-009 (NNG to NHA); IgG4 (S228P)/kappa) VH: QVQLVQSGAEVKKPGASVKVSCKASGYTFTDYYMNWVRQAPGQGLEWMGDIIPNHAGSKYNQKFKDRVTMTTDTSTSTAYMELRSLRSDDTAVYYCATWGYGSSYRWFDYWGQGTLVTVSS VL: DIQMTQSPSSLSASVGDRVTITCLASQPIGIWLAWYQQKPGKAPKLLIYAATSLADGVPSRFSGSGSGTDFTFTISSLQPEDIATYYCQQLYSSPWTFGGGTKVEIKR",530 pM,597 pM,,
"h1701-009NLG (antibody, human IgG4 S228P, kappa, V domains shown, HCDR2 point-mutation variant of h1701-009 (NNG to NLG); IgG4 (S228P)/kappa) VH: QVQLVQSGAEVKKPGASVKVSCKASGYTFTDYYMNWVRQAPGQGLEWMGDIIPNLGGSKYNQKFKDRVTMTTDTSTSTAYMELRSLRSDDTAVYYCATWGYGSSYRWFDYWGQGTLVTVSS VL: DIQMTQSPSSLSASVGDRVTITCLASQPIGIWLAWYQQKPGKAPKLLIYAATSLADGVPSRFSGSGSGTDFTFTISSLQPEDIATYYCQQLYSSPWTFGGGTKVEIKR",637 pM,640 pM,,
"h1701-009NEG (antibody, human IgG4 S228P, kappa, V domains shown, HCDR2 point-mutation variant of h1701-009 (NNG to NEG); IgG4 (S228P)/kappa) VH: QVQLVQSGAEVKKPGASVKVSCKASGYTFTDYYMNWVRQAPGQGLEWMGDIIPNEGGSKYNQKFKDRVTMTTDTSTSTAYMELRSLRSDDTAVYYCATWGYGSSYRWFDYWGQGTLVTVSS VL: DIQMTQSPSSLSASVGDRVTITCLASQPIGIWLAWYQQKPGKAPKLLIYAATSLADGVPSRFSGSGSGTDFTFTISSLQPEDIATYYCQQLYSSPWTFGGGTKVEIKR",673 pM,640 pM,,
"h1701-009NHG (antibody, human IgG4 S228P, kappa, V domains shown, HCDR2 point-mutation variant of h1701-009 (NNG to NHG); IgG4 (S228P)/kappa) VH: QVQLVQSGAEVKKPGASVKVSCKASGYTFTDYYMNWVRQAPGQGLEWMGDIIPNHGGSKYNQKFKDRVTMTTDTSTSTAYMELRSLRSDDTAVYYCATWGYGSSYRWFDYWGQGTLVTVSS VL: DIQMTQSPSSLSASVGDRVTITCLASQPIGIWLAWYQQKPGKAPKLLIYAATSLADGVPSRFSGSGSGTDFTFTISSLQPEDIATYYCQQLYSSPWTFGGGTKVEIKR",317 pM,640 pM,,
"h1701-009NMA (antibody, human IgG4 S228P, kappa, V domains shown, HCDR2 point-mutation variant of h1701-009 (NNG to NMA); IgG4 (S228P)/kappa) VH: QVQLVQSGAEVKKPGASVKVSCKASGYTFTDYYMNWVRQAPGQGLEWMGDIIPNMAGSKYNQKFKDRVTMTTDTSTSTAYMELRSLRSDDTAVYYCATWGYGSSYRWFDYWGQGTLVTVSS VL: DIQMTQSPSSLSASVGDRVTITCLASQPIGIWLAWYQQKPGKAPKLLIYAATSLADGVPSRFSGSGSGTDFTFTISSLQPEDIATYYCQQLYSSPWTFGGGTKVEIKR",629 pM,653 pM,,
"h1701-009NVG (antibody, human IgG4 S228P, kappa, V domains shown, HCDR2 point-mutation variant of h1701-009 (NNG to NVG); IgG4 (S228P)/kappa) VH: QVQLVQSGAEVKKPGASVKVSCKASGYTFTDYYMNWVRQAPGQGLEWMGDIIPNVGGSKYNQKFKDRVTMTTDTSTSTAYMELRSLRSDDTAVYYCATWGYGSSYRWFDYWGQGTLVTVSS VL: DIQMTQSPSSLSASVGDRVTITCLASQPIGIWLAWYQQKPGKAPKLLIYAATSLADGVPSRFSGSGSGTDFTFTISSLQPEDIATYYCQQLYSSPWTFGGGTKVEIKR",717 pM,581 pM,,
"h1701-010 (antibody, human IgG4 S228P, kappa, V domains shown, Humanized IgG4 (S228P)/kappa) VH: QVQLVQSGAEVKKPGASVKVSCKASGYTFTDYYMNWVRQAPGQGLEWMGDIIPNNGGSKYNQKFKDRVTMTTDTSTSTAYMELRSLRSDDTAVYYCATWGYGSSYRWFDYWGQGTLVTVSS VL: DIQMTQSPSSLSASVGDRVTITCLASQPIGIWLAWYQQKPGKSPKLLIYAATSLADGVPSRFSGSGSGTDFTFTISSLQPEDIATYYCQQLYSSPWTFGGGTKVEIKR",,,69 pM,2250 pM
"h1701-009NEA (antibody, human IgG4 S228P, kappa, V domains shown, HCDR2 point-mutation variant of h1701-009 (NNG to NEA); IgG4 (S228P)/kappa) VH: QVQLVQSGAEVKKPGASVKVSCKASGYTFTDYYMNWVRQAPGQGLEWMGDIIPNEAGSKYNQKFKDRVTMTTDTSTSTAYMELRSLRSDDTAVYYCATWGYGSSYRWFDYWGQGTLVTVSS VL: DIQMTQSPSSLSASVGDRVTITCLASQPIGIWLAWYQQKPGKAPKLLIYAATSLADGVPSRFSGSGSGTDFTFTISSLQPEDIATYYCQQLYSSPWTFGGGTKVEIKR",667 pM,653 pM,,
"h1701-009NKG (antibody, human IgG4 S228P, kappa, V domains shown, HCDR2 point-mutation variant of h1701-009 (NNG to NKG); IgG4 (S228P)/kappa) VH: QVQLVQSGAEVKKPGASVKVSCKASGYTFTDYYMNWVRQAPGQGLEWMGDIIPNKGGSKYNQKFKDRVTMTTDTSTSTAYMELRSLRSDDTAVYYCATWGYGSSYRWFDYWGQGTLVTVSS VL: DIQMTQSPSSLSASVGDRVTITCLASQPIGIWLAWYQQKPGKAPKLLIYAATSLADGVPSRFSGSGSGTDFTFTISSLQPEDIATYYCQQLYSSPWTFGGGTKVEIKR",438 pM,472 pM,,
"h1701-009NMG (antibody, human IgG4 S228P, kappa, V domains shown, HCDR2 point-mutation variant of h1701-009 (NNG to NMG); IgG4 (S228P)/kappa) VH: QVQLVQSGAEVKKPGASVKVSCKASGYTFTDYYMNWVRQAPGQGLEWMGDIIPNMGGSKYNQKFKDRVTMTTDTSTSTAYMELRSLRSDDTAVYYCATWGYGSSYRWFDYWGQGTLVTVSS VL: DIQMTQSPSSLSASVGDRVTITCLASQPIGIWLAWYQQKPGKAPKLLIYAATSLADGVPSRFSGSGSGTDFTFTISSLQPEDIATYYCQQLYSSPWTFGGGTKVEIKR",603 pM,675 pM,,
"h1701-016 (antibody, human IgG4 S228P, kappa, V domains shown, Humanized IgG4 (S228P)/kappa) VH: QVQLVQSGAEVKKPGASVKVSCKASGYTFTDYYMNWVRQAPGQGLEWIADIIPNNGGSKYNQKFKDRATLTTDTSTSTAYMELRSLRSDDTAVYYCATWGYGSSYRWFDYWGQGTLVTVSS VL: DIQMTQSPSSLSASVGDRVTITCLASQPIGIWLAWYQQKPGKSPKLLIYAATSLADGVPSRFSGSGSGTDFTFTISSLQPEDIATYYCQQLYSSPWTFGGGTKVEIKR",,,58 pM,1600 pM
"h1799-015 (antibody, human IgG4 S228P, kappa, V domains shown, Humanized IgG4 (S228P)/kappa) VH: EVKLVESGGGLVQPGGSLRLSCAASGFTFSDYYMAWVRQAPGKGLEWVANINYDGSSTYYLDSLKSRFTISRDNAKNSLYLQMNSLKAEDTAVYYCARDVGYYGGNYGFAYWGQGTLVTVSS VL: DIQMTQSPSSLSASVGDRVTITCRASDNIYSYLAWYQQKPGKAPKLLIYNAKTLAEGVPSRFSGSGSGTDFTLTISSLQPEDFATYYCQQHYGSPLTFGQGTKLEIKR",,,188 pM,
"h1799-016 (antibody, human IgG4 S228P, kappa, V domains shown, Humanized IgG4 (S228P)/kappa) VH: EVKLVESGGGLVQPGGSLRLSCAASGFTFSDYYMAWVRQAPGKGLEWVANINYDGSSTYYLDSLKSRFTISRDNAKNSLYLQMNSLKAEDTAVYYCARDVGYYGGNYGFAYWGQGTLVTVSS VL: DIQMTQSPSSLSASVGDRVTITCRASDNIYSYLAWYQQKPGKAPKLLVYNAKTLAEGVPSRFSGSGSGTDFTLTISSLQPEDFATYYCQQHYGSPLTFGQGTKLEIKR",,,117 pM,
"h1799-018 (antibody, human IgG4 S228P, kappa, V domains shown, Humanized IgG4 (S228P)/kappa) VH: EVKLVESGGGLVQPGGSLRLSCAASGFTFSDYYMAWVRQAPGKGLEWVANINYDGSSTYYLDSLKSRFTISRDNAKNSLYLQMNSLKAEDTAVYYCARDVGYYGGNYGFAYWGQGTLVTVSS VL: DIQMTQSPSSLSASVGDRVTITCRASDNIYSYLAWYQQKPGKSPQLLVYNAKTLAEGVPSRFSGSGSGTDFTLTISSLQPEDFATYYCQQHYGSPLTFGQGTKLEIKR",,,215 pM,
"h1799-017 (antibody, human IgG4 S228P, kappa, V domains shown, Humanized IgG4 (S228P)/kappa) VH: EVKLVESGGGLVQPGGSLRLSCAASGFTFSDYYMAWVRQAPGKGLEWVANINYDGSSTYYLDSLKSRFTISRDNAKNSLYLQMNSLKAEDTAVYYCARDVGYYGGNYGFAYWGQGTLVTVSS VL: DIQMTQSPSSLSASVGDRVTITCRASDNIYSYLAWYQQKPGKAPQLLVYNAKTLAEGVPSRFSGSGSGTDFTLTISSLQPEDFATYYCQQHYGSPLTFGQGTKLEIKR",,,194 pM,
"h1799-019 (antibody, human IgG4 S228P, kappa, V domains shown, Humanized IgG4 (S228P)/kappa) VH: EVKLVESGGGLVQPGGSLRLSCAASGFTFSDYYMAWVRQAPGKGLEWVANINYDGSSTYYLDSLKSRFTISRDNAKNSLYLQMNSLKAEDTAVYYCARDVGYYGGNYGFAYWGQGTLVTVSS VL: DIQMTQSPSSLSASVGDRVTITCRASDNIYSYLAWYQQKPGKSPQLLVYNAKTLAEGVPSRFSGSGSGTDFTLTISSLQPEDFASYYCQQHYGSPLTFGQGTKLEIKR",,,119 pM,
"Ch1701 (antibody, human IgG4 S228P, kappa, V domains shown) VH: EVQLQQSGPELVKPGASVKISCKASGYTFTDYYMNWVKQSHGKSLEWIADIIPNNGGSKYNQKFKDKATLTVDKSSSTAYMELRSLTSEDSAVYYCATWGYGSSYRWFDYWGQGTLVSVSA VL: DIQMTQSPASQSASLGESVTITCLASQPIGIWLAWYQQKPGKSPQLLIYAATSLADGVPSRFSGSGSGTKFSFKISSLQAEDFVSYYCQQLYSSPWTFGGGTKLEIKR",,,166 pM,1390 pM
